Results published in US20230374088A1.

Molecular target: T1, Gli2-ZF-SNAP (human), P10070
T1 chain: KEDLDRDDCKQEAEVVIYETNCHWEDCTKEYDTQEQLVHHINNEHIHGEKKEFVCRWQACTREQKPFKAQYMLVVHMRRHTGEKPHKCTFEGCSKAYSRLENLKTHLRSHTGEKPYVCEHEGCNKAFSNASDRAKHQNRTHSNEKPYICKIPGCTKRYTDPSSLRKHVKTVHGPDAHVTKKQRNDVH
Experiment: TIRF microscopy; 100 nM Gli2-ZF-SNAP-Alexa647 with 100 nM kinesin on microtubules
Details: remark: other sources report otherwise

B1: Kif7-MM (monomeric Kif7 motor domain, 1-386aa), Q2M1P5 1-386 (protein)
chain: MGLEAQRLPGAEEAPVRVALRVRPLLPKELLHGHQSCLQVEPGLGRVTLGRDRHFGFHVVLAEDAGQEAVYQACVQPLLEAFFEGFNATVFAYGQTGSGKTYTMGEASVASLLEDEQGIVPRAMAEAFKLIDENDLLDCLVHVSYLEVYKEEFRDLLEVGTASRDIQLREDERGNVVLCGVKEVDVEGLDEVLSLLEMGNAARHTGATHLNHLSSRSHTVFTVTLEQRGRAPSRLPRPAPGQLLVSKFHFVDLAGSERVLKTGSTGERLKESIQINSSLLALGNVISALGDPQRRGSHIPYRDSKITRILKDSLGGNAKTVMIACVSPSSSDFDETLNTLNYASRAQNIRNRATVNWRPEAERPPEETASGARGPPRHRSETRIIH
modifications: here or on the partner: Alexa 647 dye on the SNAP tag in the TIRF assays
For B1, the fold Gli2-ZF Alexa-647 intensity on microtubules over Gli alone was 3 fold.
